Laboratory results: the supplement of paper PMC12636428

Tested on: Saccharomyces cerevisiae
Assay: transcriptional activation domain activity (GFP:mCherry ratio, weighted mean of sorted bins, harmonized to initial dataset scale) (arbitrary fluorescence ratio units); higher = stronger transcriptional activation
Details: beta-estradiol 1 µM; induction time 4 h
Summary of the method: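 Activation activity, the read-weighted mean of bin median fluorescence averaged across barcodes, was linearly mapped onto the scale of the initial dataset. It was measured for barcoded protein tiles fused to an estradiol-inducible synthetic transcription factor at URA3 in GFP-reporter yeast diploids. Cultures diluted 1:5 into SC with 1 uM beta-estradiol were held 4 hours at 30 °C, sorted into 8 bins by GFP:mCherry ratio, and barcode-sequenced, and tiles under 50 reads were discarded.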

Point of comparison: “GAGGAMGAALKHAVRDLAALSTAVSGAWVVEAITSSCSRRSIAVLVSRALAAM”, “transcriptional activation domain activity” value 42000. Against it:
- MPNKLVYEICFVHLTINCLCRGCLMYCALYIILIIKYHNHLLYFIFFNFMAIP — lower, 38200
- FPRLVGCIAASLEGLPSTRNGRTAYCVLRVVASYFLCLIRNLMFSDLPVVRCR — higher, 68700
- EFILHTMPVVAIKDTHAWNGNTPVELGLLGFWNLIVVWLKLLIPWRFFRLWAL — higher, 63800
- MISFFNWQVWGGFCGLLFIFFLFDFFLLEFGSTYHLLEDGLNLFLFWYFYDYD — higher, 43600
- EPRISEGGLAALVASSPCKPAAVPILLTGPPKQAKACSSRLTGTHRPASNCKS — lower, 36500
- ETSDEAKSEDSSSDEGDDSSSSEDDGRKRSRKKSVIKMRKTKAKKTKKKGKKS — lower, 39300
- MISPFHFQSLFFILFLLFFLCAWCSGWAGLRFFTPHLVSIFFLFMDWQLDLVG — higher, 48500
- VGGEANGEVVKRKSKKKGGKEETDTEVVDGEDQSSRKVATRKLSRGKAEKKAK — higher, 48900
- MCCLLLFSPSFLCFFFAFFFYFTFYMTHLSDFSFLQRAIGLTYVFIWLIYRAH — lower, 38100
- SSSEEGSDGEEGDGEKDKDAKEKDGKDADGDVDMDADGKPKPKKAKPKKSTKK — lower, 31500
- MEASFYFSSSSFCSAFLFFYFFILFFWGGFPLFPSQLFLSLSLLFIHTLSLFP — lower, 26700
- QAGSTGSSSRKRKKAVTDGEETPSTSEPRRLRRSHEACARCRSKKIKASACDS — lower, 28300
- CEPLRKATRGLVTTVVNGNDVVPSLSIGVVRDFHSVALSFKEDTGGVLGEVRK — lower, 39100
- LLYLCRDILMAVFAWSLAIQIDPFFTNVVIRSILSPTIAKTFRWMSWCVYWWF — higher, 57700
- RVPWSSAISKRLQTYHEMLQSFPFVWRMIKDVLGLKSCRYLLVLYLFCEAVTS — higher, 62000
- MDELGKIAFGSIPPPQAEPNLIGDNFGIFVDDMFTAYEDPMAHWSFLFEDLFP — higher, 151000
- LLYVMALLMWLFAIAILFPPSALTVVRHDFLEQIPQVVPNLDVAYGRNIEGVK — lower, 41800
- KVVLTERLARGKAEIKDLQVCFECMSLVGMKINIFKGNGFMWTIACSVLFQKG — higher, 52100
- SDVLFVSLNLLYFWCYLIPLLATIWIRLGNADSTINDRLSVHFYSVAFLLLLF — lower, 32800
- GEASAEKTKKRSRASKGGEDGKKKKSKEARVESNGANGHAGGDAAAAAAAEQQ — lower, 30400
- GEKAEGANGEGSGAEGSRRRPSGRGRGRGRGRGGRGGRGGRATNEAGDEKKEG — lower, 22500
- PYIVYPLKPCLSGPLCELYPSVMNLWAMCLHLILLCIQIPFLLSIPFWLLFPL — higher, 86900
- VYSYKKRMWHYFLFDLCYYVNIINLVYIWILPQSAWLFVACYCLSHGSVASAV — higher, 58700
- AESQLTLRAIVSSKEAGVIIGKGGKNVADLRDETGCKAGVSKVVQGVHDRVLT — lower, 22300
- LDHRVGIEKLYVSLFFLSTALLIIIEQYFPSLKSRGVLNFLWKLLYLPLLRLV — higher, 43000
- GRHFLAGVLEGLPYVMPLFAPTVNSYKRLVENFWAPVTVSWGLEHRIASIRLI — lower, 32600
- KDEEEREGEKRKEGKEESDTAVVKHRRRYRSRSKDRKRDGSRERRHRERSREG — lower, 30600
- EMAVACISVLILIGYNTIILYVYPLYPTRSPLRLSETYINHLLSNFLWWFIMF — higher, 59100
- PTASTIYEEAESQSSYLDDMFRTSQGGRPVTQNSISSIGQGPLRSSYSMAYDS — higher, 51300
- TRPYEMALKFVNVTDTNELLRMRQFACDICDYAPHLLDNDNISLLIVLLILTR — higher, 45000
- HQVYTDWLYLWCLTYFARAHDQVLIILKKSLKHIPIVGWGMQFFRFLFLARSW — lower, 31700
- MADEEGASPRELILEACRRNNTSLLEETLADLASSASKAKQDPTGYVAKTLNE — higher, 42600
- LFYFIFILFFFTLGDICFRFFYFMGPCFVLFKMVLLIFFSPFSFLHLSLSWVT — higher, 43100
- KILVQAFKAVFTSPSSAKEADGDGEGADIIENNRRARRALYQVKVKTCVASII — the same, 42000
- MPLRLRCNCILFYLLFFPLFFFNSTCDFSILLVIFFYSTFSLDFSSFLLFFFF — higher, 55500
- RPSSPPRRPPPSSPSPAPPSKSPATCRSKTSPWGHGRCRPRPPARAPASGTAP — higher, 45200
- EAAAGSVKNEAGESSASSAARGGRGGRRGGGGPGSRGGKVGRGRGGRAGASQE — lower, 32500
- MIIFFFFFFLLCHWINTGIIFHVLDLMVKFLFFIFVDQQKKLSLLLFIHFAWL — higher, 54700
- MFVGGWVMCLLFSKYSIYHLLAICALLFLLEYAFFFLLGIIHLLLLPTFFPFF — lower, 37800
- NRWMMATFMSGCVGALVYFFYKLVKVVMLKSTPSFVSIWKSLTTFSIIAIFLL — lower, 37200
- MSTVPRLRLHLHLHLHLHLRLHLHLQLSTPKPTEDGAEHGTERGTERGTERGT — higher, 49700
- KPTNQTEFDWQVFQQQAFLQQQLAQHNLQAYLSSLNTDTMTNRSPSKSSSIST — higher, 66300
- LRHICLLLSIWSKHLIERLKKLPANVRLTIVQALVRFVIPKLHIYGHKLLCQL — higher, 44500
- MLYVRCVISYIHIYNIFIHVTVSVHPEWWAFVSLTCFTLHVYLLHFLSAVARC — higher, 67000
- KTHPQASAEADGEEDAEPEGQAKSRQPSRRRQSRGRGRRGGPQESDTESIARS — lower, 19300
- ATAARRPRADEGEEGLDEATDAAAAPAAAAENGEAAAAKPKKNRKSKAAKAAA — lower, 16300
- MELYGTHGVFYYYFFVIGFFLDYHSFLSPLLSLLMRIEKDVSGIFFFVFLFFC — higher, 63700
- MFYYIYLFSFFFIIVLPLPLSLCTFLHPLLLDCNFTLVAFFFCLLLFYVCHFF — lower, 28800
- IAILRLYSEPDVDLLRLSSQVLAASLLLDDHFICDIKNIRSVVAMIPRVLTLP — higher, 46800
- EDEAQGEEGEKAKKSRKRKRDEAAEGGKQKKEKAPPKPRAKKGSAEPKPKKAA — lower, 25900
- MYLFFLFYILEFAVRSESGPICASNTKCIGRYCVYCKCTSLLSRVLRLLFICC — higher, 64300
- AKGEAEPKAKAKGKGKAKAQAESEGEEEEEEEEEEEVKGKGKSRAKSKPKAKA — higher, 53900
- MTSWPLLPPYSIHAMIKMIAFSSLFCSFFSLHLFFYYYLPLYIAVFIFFIVTH — lower, 32400
- KLFFNLSILTLCAIMTLSVVVAFLFVTGCDPFYGYRGILFGFRILLTDIFSNM — lower, 31400
- GGETEGESPEAPVPGGETPSEGGETETPSEGGETEGESPETPVPGGETPSEGG — lower, 16800
- QVPEQVPEQAPEPEKVAEEIVKEEVKKPEEPKAPTPSPAPVAAPRAAAPPAAE — lower, 29500
- APKEETTKPTIEVKIDVGSRCEVESTEPGLSKRGTVRFVGQTSFGNGEGVWVG — higher, 42200
- MAWAYGSCLCRCCFFFASLWQFLFFVFGFLPFWPFFGFLLFISVVLPPSSLFL — higher, 46100
- GAAHVPSGLSEEKELEQEKKKADRRKGMREKAKEREAKRPVEVAAPEPVAAAP — lower, 23700
- VYILSFYLPSLFPSFFTHSLFFFLHLWSCSTSSQTNMRLPTLAFISLPFVLTF — higher, 53600
- MAERNLTLFSSFFFFLLFFFFFFFFFLEDVFLFFLRMLFTFVGSWFFFFFSYL — lower, 7100
- PAPTGDSPKKEKKRKRESAVAEDAPAAAEAEEADEPEKKKKKKKKHAEAEGAN — lower, 23700
- RLLNALLLPPYLEQIMYFGTLACFDAWLYTFTILPMRFISAVGVLVKWWLYLI — higher, 47500
- IHILASIPSEFWKLLILSFFEKFRSNIYHTLFYRFIYLNRGFILLLLNQLRLI — higher, 48100
- NANADAAAGNANADAGMANAGNNAAAGNANQAKGKGKKKNKAKGKAAGAGAGA — lower, 29500
- FLHCEPPTLLRLLGFFLCLVFSLYFTLSFPFFGPMLLLIRFSLGLPLPLVLMG — higher, 58300
- KGRDEEDFPLDYFPVSVEYPTEENAFDPFPPQAFTPAAPSMPISYDNVNERDS — lower, 33400
- MEVGSAAVAGPVLAAAHVPRKRRRPALSCEQCRKRKVKCDRTSPCGQCTRSKG — lower, 32100
- RPVLDVALAAGEEDLSSKPRCQRCRKSKKGCDRQRPCGRCRDAGIGIEGCISE — lower, 31500
- VAAAAAETERAAEAERVAEAGRREEAEGTTDTGKTETGRREEADGTAGAAKAA — lower, 24800
- MYELIGQGVSFFCCYFACVCFALHFCFGPYFGLWLWHCIFKTFFFLLVFFPNY — higher, 61200
- VYVDNDGLPARSQWVLMYERMGEQGGMTLAARFVMFVDFLVQMVRLLSRSPLY — lower, 34600
- IGVLHQVFFYKNLIWTFALLLFQIFCESNATYLFDYSLVLLFNLIFTSLPVIM — higher, 53200
